Experimental findings from the Immune Epitope Database (IEDB) are described below.

One experiment addresses HLA-A*33:01. Description: IEDB peptide-MHC binding, purified MHC/competitive/radioactivity; filed as Kd, often an IC50 or EC50 that approximates it; ≥ and ≤ were set here for values at or beyond the usual limits of such assays. Particulars: source organism: Dengue virus 2 Peru/IQT2913/1996.
A word on the Kd: it is the equilibrium constant for the complex coming apart. For TTFITPMLR, the Kd stood at 11.7 nM.

Staying with this experiment, now noted: source organism: Mammarenavirus guanaritoense.
CCNWLDRCR: the Kd was ≥ 56800 nM.

The same experiment, now with this note: source organism: Mammarenavirus lassaense.
On to TCQGSDDIK, for which the Kd turned out to be 2840 nM.

On to SHLGPQFCK, for which the Kd is ≥ 28300 nM.

Staying with this experiment, now noted: source organism: Mammarenavirus mopeiaense.
As to KCFGNTAIAK, the Kd was 3380 nM.

The experiment is the same for the next values; noted with them: source organism: Mammarenavirus tacaribeense.
For VCPLGLLLK, the Kd was ≥ 77700 nM.

The same experiment, now with this note: source organism: SARS coronavirus Tor2.
For PVNQFTGYLK, the dissociation constant (Kd) was ≥ 61900 nM.

NLLDSYFVVK: the Kd came to 4590 nM.

For SLTVLFDGR, the equilibrium dissociation constant (Kd) came to 2520 nM.

Turning to GVVREFLTR, the Kd turned out to be 13200 nM.

On to SFIEDLLFNK, for which the dissociation constant (Kd) amounted to 387 nM.

Regarding SVFYLYLTFY, the Kd amounted to 6010 nM.

In the case of FLLNKEMYLK, the Kd amounted to 2510 nM.

Take QTVKPGNFNK: the Kd was 10500 nM.

With RFQPFQQFGR, the Kd was 1300 nM.

For the sequence TFFSTFKCY, the Kd stood at 1150 nM.

Turning to FVFPLNSKVK, the Kd is 16700 nM.

The experiment is the same for the next values; noted with them: source organism: Vaccinia virus WR.
Consider QFIKPVSDLY, for which the Kd was ≥ 42600 nM.

Consider RQILDNAAK, for which the Kd was ≥ 77700 nM.

Regarding KAIEKDRLDK, the Kd was ≥ 70000 nM.

Regarding VSVSDFRDY, the Kd was determined as 11900 nM.

For the sequence VTLFYCDER, the Kd came to 284 nM.

For the sequence KASMLEKYK, the Kd was ≥ 39200 nM.

As for MIKMFSQIDR, the dissociation constant Kd amounted to 45.3 nM.

In the case of TLITLILSNK, the equilibrium dissociation constant (Kd) amounted to 8500 nM.

Consider RALKAYFTAK, for which the Kd is 16000 nM.

With VISKIYTLIY, the Kd came out at 2240 nM.

In the case of DSMDVLAEK, the Kd was determined as 1.81 nM.

Regarding VALSSLVSK, the Kd was ≥ 39800 nM.

In the case of DIEIGNFYIR, the Kd is 129 nM.

For SSLRREHIK, the equilibrium dissociation constant (Kd) was ≥ 37100 nM.

In the case of ETSPGEIKPK, the Kd was ≥ 61900 nM.

In the case of NAISSRVDR, the Kd came out at 96 nM.

Regarding ESRPFDLIK, the Kd stood at 3400 nM.

Turning to DTSEKYSKGY, the Kd was ≥ 70000 nM.

For the sequence ETFKIDAVRY, the Kd is ≥ 70000 nM.

Consider NVHEHINDQK, for which the Kd is ≥ 29200 nM.

With STGESSILR, the Kd is 4730 nM.

For the sequence QFNFNGHTY, the dissociation constant (Kd) is ≥ 64600 nM.

Take EQLSKYVEK: the Kd is 832 nM.

For the sequence CAVHLIIYY, the Kd was ≥ 21100 nM.

As to VALYRRIQR, the dissociation constant (Kd) stood at 12.8 nM.

As to RLGLVLDDYK, the Kd was ≥ 70000 nM.

Consider ELRRAAIDR, for which the Kd turned out to be 1090 nM.

Turning to KSKQDRSDGY, the Kd is ≥ 70000 nM.

Take HINTLIQYR: the Kd was 16.5 nM.

Another experiment addresses HLA-A*11:01. The experiment is described as above. Particulars: source organism: Dengue virus 2 Peru/IQT2913/1996.
TTFITPMLR: the Kd worked out at 84.4 nM.

Still in this experiment, the particulars now being: source organism: Mammarenavirus guanaritoense.
As for CCNWLDRCR, the Kd worked out at 18100 nM.

The same experiment, now with this note: source organism: Mammarenavirus lassaense.
On to TCQGSDDIK, for which the Kd came to 16500 nM.

In the case of SHLGPQFCK, the Kd was 347 nM.

Staying with this experiment, now noted: source organism: Mammarenavirus mopeiaense.
As for KCFGNTAIAK, the equilibrium dissociation constant (Kd) was determined as 7370 nM.

The same experiment, now with this note: source organism: Mammarenavirus tacaribeense.
On to VCPLGLLLK, for which the Kd was 2420 nM.

Still in this experiment, the particulars now being: source organism: SARS coronavirus Tor2.
Consider PVNQFTGYLK, for which the dissociation constant Kd stood at 764 nM.

As for NLLDSYFVVK, the Kd stood at 1870 nM.

Regarding SLTVLFDGR, the Kd amounted to 7530 nM.

As for GVVREFLTR, the equilibrium dissociation constant (Kd) turned out to be 522 nM.

Take SFIEDLLFNK: the Kd came to 352 nM.

Turning to SVFYLYLTFY, the Kd is 196 nM.

FLLNKEMYLK: the dissociation constant (Kd) amounted to 153 nM.

As for QTVKPGNFNK, the Kd was 249 nM.

In the case of RFQPFQQFGR, the Kd was ≥ 35100 nM.

For TFFSTFKCY, the Kd came to 4350 nM.

On to FVFPLNSKVK, for which the Kd was 113 nM.

The experiment is the same for the next values; noted with them: source organism: Vaccinia virus WR.
Regarding QFIKPVSDLY, the Kd is ≥ 38300 nM.

In the case of RQILDNAAK, the dissociation constant (Kd) amounted to 144 nM.

Regarding KAIEKDRLDK, the Kd was 1200 nM.

Regarding VSVSDFRDY, the Kd is 10400 nM.

As to VTLFYCDER, the Kd stood at 273 nM.

As to KASMLEKYK, the Kd amounted to 110 nM.

In the case of MIKMFSQIDR, the Kd was 3790 nM.

Take TLITLILSNK: the equilibrium dissociation constant (Kd) came to 3.41 nM.

With RALKAYFTAK, the Kd was 26.5 nM.

Turning to VISKIYTLIY, the Kd was 113 nM.

As for DSMDVLAEK, the Kd came to 1.73 nM.

On to VALSSLVSK, for which the Kd amounted to 15.1 nM.

For DIEIGNFYIR, the Kd was found to be 10400 nM.

Turning to SSLRREHIK, the Kd is 270 nM.

For ETSPGEIKPK, the Kd came out at 1520 nM.

Turning to NAISSRVDR, the Kd is ≥ 37100 nM.

Turning to ESRPFDLIK, the Kd came out at 1320 nM.

As to DTSEKYSKGY, the Kd turned out to be 886 nM.

As to ETFKIDAVRY, the Kd is ≥ 25100 nM.

As to NVHEHINDQK, the Kd came to 18400 nM.

Take STGESSILR: the Kd was determined as 928 nM.

Regarding QFNFNGHTY, the Kd was determined as 14200 nM.

Take EQLSKYVEK: the Kd was determined as 9.75 nM.

For the sequence CAVHLIIYY, the Kd worked out at 788 nM.

On to VALYRRIQR, for which the equilibrium dissociation constant (Kd) stood at 5240 nM.

RLGLVLDDYK: the Kd is 37.8 nM.

Regarding ELRRAAIDR, the Kd is ≥ 77900 nM.

For the sequence KSKQDRSDGY, the Kd was ≥ 69800 nM.

Turning to HINTLIQYR, the Kd is 197 nM.

In a further experiment the target is HLA-A*31:01. Described as above. Particulars: source organism: Dengue virus 2 Peru/IQT2913/1996.
Turning to TTFITPMLR, the Kd was determined as 27.1 nM.

The experiment is the same for the next values; noted with them: source organism: Mammarenavirus guanaritoense.
For CCNWLDRCR, the equilibrium dissociation constant (Kd) was determined as 13500 nM.

The same experiment, now with this note: source organism: Mammarenavirus lassaense.
For the sequence TCQGSDDIK, the equilibrium dissociation constant (Kd) is 5090 nM.

Regarding SHLGPQFCK, the Kd was ≥ 24200 nM.

The same experiment, now with this note: source organism: Mammarenavirus mopeiaense.
As for KCFGNTAIAK, the Kd was found to be 528 nM.

Still in this experiment, the particulars now being: source organism: Mammarenavirus tacaribeense.
As for VCPLGLLLK, the Kd is ≥ 26500 nM.

The experiment is the same for the next values; noted with them: source organism: SARS coronavirus Tor2.
As for PVNQFTGYLK, the Kd is ≥ 70000 nM.

Consider NLLDSYFVVK, for which the dissociation constant (Kd) is 7220 nM.

Regarding SLTVLFDGR, the Kd worked out at 350 nM.

Regarding GVVREFLTR, the equilibrium dissociation constant (Kd) is 899 nM.

For the sequence SFIEDLLFNK, the Kd stood at 53.5 nM.

SVFYLYLTFY: the dissociation constant Kd amounted to 2860 nM.

FLLNKEMYLK: the Kd came out at 2080 nM.

As to QTVKPGNFNK, the Kd was found to be 1510 nM.

In the case of RFQPFQQFGR, the Kd is 1.06 nM.

TFFSTFKCY: the Kd came to 797 nM.

Turning to FVFPLNSKVK, the Kd was determined as 12800 nM.

The same experiment, now with this note: source organism: Vaccinia virus WR.
Turning to QFIKPVSDLY, the Kd is ≥ 46500 nM.

With RQILDNAAK, the dissociation constant Kd was found to be 1110 nM.

KAIEKDRLDK: the Kd is ≥ 21800 nM.

Regarding VSVSDFRDY, the Kd is ≥ 77900 nM.

With VTLFYCDER, the Kd is 131 nM.

KASMLEKYK: the dissociation constant (Kd) amounted to 181 nM.
